Marks after values point to notes of the source that are not given here.
Assays:
CYP3A4 holoenzyme = assay: Expression of CYP3A4 holoenzyme in E. coli, reduced CO difference spectra; design: species or system human
Protocol: (§1) Mutants were expressed in E. coli TOPP3 cells. Cultures of each strain were started from single colonies in 2-ml of LB media containing ampicillin (50 μg/ml) and tetracycline (15 μg/ml) and grown overnight at 37° C. with shaking. Larger, 20-ml cultures of each sample were inoculated and grown as described for the 2-ml cultures. Starter cultures (15 ml) were inoculated into 250-ml of TB media containing ampicillin (50 μg/ml) and grown 2-3 hr at 37° C. at 250 rpm. δ-aminolevulinic acid (80 mg/L) and IPTG (1 mM) were added and the cultures grown 72 hr at 30° C. at 190 rpm. The cells were harvested, sonicated and CHAPS solubilized, and the protein was purified on Talon Metal Affinity resin from Clontech (Palo Alto, Calif.). Final P450 content was measured by reduced CO difference spectra (Omura, J Biol Chem 239 (1964), 2370-2378), and each protein was visualized on an 8.5% SDS PAGE gel stained with Coomassie blue. Western Blot analysis of CYP3A4 wild-type, M2, M5 and M7 was performed by resolving 1 pmol of 3A4 wildtype and M5, and 8 μl of M2 and M7 total protein sample on an 8.5% SDS PAGE gel. The samples were then transferred to nitrocellulose and probed with an anti-3A12 polyclonal antibody known to cross-react with CYP3A4 (Ciaccio, Arch Biochem Biophys 271 (1989), 284-99).
The effect of the protein variants on the expression level and catalytical activity of CYP3A4 was investigated using a bacterial CYP3A4 expression system. Sequence variants were introduced into the pSE3A4H expression vector (Harlow, J Biol Chem 272 (1997), 5396-402) which encodes for a CYP3A4 protein identical to that found in most Caucasians. No other, unwanted mutations were introduced into the CYP3A4 insert or the promoter driving its expression as confirmed by sequencing. Mutants M1-M8 were expressed in E. coli as described in Example 5, the expression of the CYP3A4 holoenzyme assessed by measuring reduced CO difference spectra, and the protein purified. All but M2, M5 and M7 mutants were detectable at levels similar to CYP3A4. […] The expression of M2, M5, and M7 was further investigated by Western Blotting using an anti-CYP3A12 polyclonal antibody known to cross-react with CYP3A4 (Ciaccio, Arch Biochem Biophys 271 (1989), 284-99) as described in Example 5.

CYP3A4 [1] = assay: Progesterone hydroxylase activity of wild-type and mutant CYP3A4 proteins; type: biochemical, human
Protocol: as §1
(§2) Following the reconstitution with NADPH-cytochrome P450 reductase and cytochrome b5, the catalytical activities of M1, M4, M5 and M6 variants were measured using testosterone, progesterone and 7-BFC as substrates (Tables 5-7).

CYP3A4 [2] = target: T1, CYP3A4 (Homo sapiens, UniProt P08684, T363M); assay: as above; type: biochemical; details: Table 6
T1 construct: made in house; host or cells: E. coli TOPP3
Protocol: as §1, §2

CYP3A4 [3] = assay: Testosterone hydroxylase activity of wild-type and mutant CYP3A4 proteins (reconstituted with NADPH-cytochrome P450 reductase and cytochrome b5); type: biochemical, human
Protocol: as §1, §2

CYP3A4 [4] = target: T1, CYP3A4; assay: as above; type: biochemical; details: Table 5
Protocol: as §1, §2

CYP3A4 [5] = assay: 7-Benzyloxy-4-(trifluoromethyl)coumarin (7-BFC) debenzylase activity of wild-type and mutant CYP3A4 proteins; type: biochemical, human; details: substrate 7-BFC
Protocol: as §1, §2

CYP3A4 [6] = target: T1, CYP3A4; assay: as above; type: biochemical; details: Table 7
Protocol: as §1, §2

T1 sequence (P08684 2-503 T363M): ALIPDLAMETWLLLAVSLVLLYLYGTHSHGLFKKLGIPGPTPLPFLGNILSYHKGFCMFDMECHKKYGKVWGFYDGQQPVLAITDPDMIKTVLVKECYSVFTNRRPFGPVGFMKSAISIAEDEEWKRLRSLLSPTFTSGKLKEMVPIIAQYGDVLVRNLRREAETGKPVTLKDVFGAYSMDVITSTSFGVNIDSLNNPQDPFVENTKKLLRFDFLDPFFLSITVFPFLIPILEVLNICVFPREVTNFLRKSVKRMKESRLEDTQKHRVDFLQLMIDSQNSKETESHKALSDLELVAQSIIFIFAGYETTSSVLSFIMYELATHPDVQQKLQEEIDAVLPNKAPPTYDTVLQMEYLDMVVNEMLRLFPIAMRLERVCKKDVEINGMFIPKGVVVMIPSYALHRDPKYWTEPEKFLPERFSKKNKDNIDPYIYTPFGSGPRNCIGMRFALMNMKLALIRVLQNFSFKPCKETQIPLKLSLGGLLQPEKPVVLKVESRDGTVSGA

## M5: CYP3A4 protein variant T363M (g.21867C>T, exon 11) [Mutant M5]
CYP3A4 holoenzyme
  Effect of mutation on expression of CYP3A4 holoenzyme (conclusion): diminishes
  Stability of the protein (consistency of P450 measurements in multiple determinations): some instability
CYP3A4 holoenzyme; E. coli expression, reduced CO difference spectra
  Expression level of P450 holoenzyme relative to CYP3A4: less than 10%
CYP3A4 [1]; 25 μM progesterone
  Progesterone hydroxylase 6β/16α ratio: 9.8
  Progesterone hydroxylase activity, 6β-OH: 5.9^c nmol product/min/nmol protein
  Progesterone hydroxylase activity, 16α-OH: 0.6 nmol product/min/nmol protein
CYP3A4 [1]; 150 μM progesterone
  Progesterone hydroxylase 6β/16α ratio: 5.4
  Progesterone hydroxylase activity, 6β-OH: 16.6^c nmol product/min/nmol protein
  Progesterone hydroxylase activity, 16α-OH: 3.1 nmol product/min/nmol protein
CYP3A4 [2]
  Progesterone hydroxylase activity compared with wild-type protein, in words: approximately half that of wild-type protein
CYP3A4 [3]; 25 μM testosterone
  Testosterone hydroxylase activity, 2β-OH: <0.1, <0.1 nmol product/min/nmol protein
  Testosterone hydroxylase activity, 6β-OH: 5.1^c nmol product/min/nmol protein
  Testosterone hydroxylase activity, 15β-OH: 0.1 nmol product/min/nmol protein
CYP3A4 [3]; 400 μM testosterone
  Testosterone hydroxylase activity, 2β-OH: 3.6 nmol product/min/nmol protein
  Testosterone hydroxylase activity, 6β-OH: 19.5^c nmol product/min/nmol protein
  Testosterone hydroxylase activity, 15β-OH: 0.7 nmol product/min/nmol protein
CYP3A4 [4]
  Testosterone hydroxylase activity compared with wild-type protein, in words: approximately half that of wild-type protein
CYP3A4 [5]
  7-BFC debenzylase activity, 7-hydroxy-4-(trifluoromethyl)coumarin: 2.9^c nmol product/min/nmol protein
CYP3A4 [6]
  7-BFC debenzylase activity compared with wild-type protein, in words: approximately half that of wild-type protein

Source: patent publication US7655771B1, “Polymorphisms in the human cyp3a4 and cyp3a7 genes and their use in diagnostic and therapeutic applications” (PGx Health, LLC, priority 1999, dated 2010)
